Test results reported in US20230340145A1, “Methods of Treating High Risk Multiple Myeloma” (Janssen Biotech, Inc., priority 2017, published 2023).

How the values were obtained:
[1] = tested on: patients with relapsed or refractory multiple myeloma; assay: CASTOR (NCT02136134) phase 3 trial, safety (adverse events); type: in vivo, human
From the text: The purpose of this study is to assess the effects of administration of daratumumab when combined with VELCADE® (bortezomib) and dexamethasone compared with VELCADE® (bortezomib) and dexamethasone alone, for participants with relapsed or refractory multiple myeloma. The study was a multicenter, randomized open-label active-controlled phase 3 trial. A prespecified interim analysis has been described in Palumpo et al., NEJM375:754-66, 2016. The clinical trial number for this study is NCT02136134. Daratumumab was administered as an IV infusion at a dose of 16 mg/kg once per week (days 1, 8, and 15) for cycles 1-3, once every 3 weeks (on Day 1) during cycles 4-8, and once every 4 weeks thereafter. […] Dexamethasone was administered orally at 20 mg on Days 1, 2, 4, 5, 8, 9, 11, and 12, for a total dose of 160 mg per cycle. Safety assessments included the evaluation of adverse events, clinical laboratory testing, vital signs, and electrocardiography. The adverse events were graded according to the National Cancer Institute Common Terminology Criteria for Adverse Events, version 4.03.

[2] = tested on: patients with relapsed or refractory multiple myeloma; assay: POLLUX (NCT02076009) phase 3 trial, safety (adverse events); type: in vivo, human
From the text: The purpose of this study was to assess the effects of administration of daratumumab when combined with lenalinomide and dexamethasone compared with lenalinomide and dexamethasone alone, for participants with relapsed or refractory multiple myeloma. The study was a multicenter, randomized open-label active-controlled phase 3 trial. A prespecified interim analysis has been described in Dimopoulos et al., NEJM375: 1319-31, 2016. The clinical trial number for this study is NCT02076009. […] For the DRd, the dose of dexamethasone was split: dexamethasone was administered at a dose of 20 mg before infusion as prophylaxis for infusion-related reactions and 20 mg was administered the next day.

Substance: daratumumab
- Patients with infusion-related reactions whose events occurred during the first infusion ([1]; % of patients with infusion-related reactions): 98.2%
- Infusion-related reactions of any grade ([1]; associated with daratumumab, DVd arm): 45.3%
- Grade 4 infusion-related events ([1]; in vivo): no grade 4 events
- Infusion-related reaction: bronchospasm ([1]; in vivo): 9.1%
- Infusion-related reaction: cough ([1]; in vivo): 7.0%
- Infusion-related reaction: dyspnea ([1]; in vivo): 10.7%
- Patients who discontinued treatment because of infusion-related reactions ([1]; in vivo): Two
- Infusion-related reactions occurring during the first infusion ([2]; % of the reactions): 92%
- Incidence of daratumumab infusion-related reactions of any grade ([2]; DRd arm): 47.7%
- Infusion-related event of grade 4 or 5 ([2]; in vivo): no patient
- Infusion-related reaction: cough ([2]; in vivo): 8.5%
- Infusion-related reaction: dyspnea ([2]; in vivo): 8.5%
- Infusion-related reaction: vomiting ([2]; in vivo): 5.7%
- Patients who discontinued daratumumab because of a grade 3 infusion-related event ([2]; in vivo): One
